Reference: the supplement of paper PMC10567573
± gives the standard deviation.

Experiment: protein stability index of a GFP-peptide fusion (GPS, HEK-293T) (PSI 1-6); higher = more stable
[1] = treatment: DMSO, c terminus: a fixed tail appended
[2] = treatment: MLN4924 1 uM, 8 h, c terminus: a fixed tail appended
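Further: 24-mer peptide tiles fused after GFP, lentivirally expressed, FACS-sorted into six equal bins by GFP/DsRed ratio, decoded by Illumina sequencing, PSI is the read-weighted mean bin number.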

Sequence	protein stability index [1]	protein stability index [2]	protein stability index (treatment: DMSO, c terminus: native)	protein stability index (treatment: MLN4924 1 uM, 8 h, c terminus: native)
FAYLEDLHSEFDEQHGKKVPTVSR [SEC22B]	3.64 ± 0.24	3.73 ± 0.33	–	–
FCQTDQTCICYLCMFQEHKNHSTV [TRIM29]	2.2 ± 0.085	2.66 ± 0.32	–	–
FCSVIRINSTAPFEEQENYFLLCD [ZNF277]	2.46 ± 0.7	1.83 ± 0.15	–	–
FDRKKKSISLMYGGSKRKSSFFSS [SLA]	2.53 ± 0.22	2.68 ± 0.4	–	–
FEAAFGTTPSTSSSSSFDPSVFDG [SNAP91]	4.61 ± 0.12	4.53 ± 0.22	–	–
FEDPRDAEDAVYGRDGYDYDGYRL [SRSF1]	4.73 ± 0.18	4.8 ± 0.14	–	–
FFEILRLFFPVIYDVKYLMKSCKN [CNOT7]	2.37 ± 0.9	2.87 ± 0.048	–	–
FFEKPDYDYLRKLFTDLFDRKGYM [CSNK1G3]	2.05 ± 0.58	2.5 ± 0.25	–	–
FHELQMQVTASDSGDPPLSSNVSL [PCDHGA10]	2.93 ± 0.49	3.38 ± 0.54	–	–
FHHIPSTCQRVNGIKVQNGGIVTD [SLC19A2]	2.47 ± 0.55	3 ± 0.41	–	–
FHLGLEDILMEEEEGVVGGLSGGA [TFE3]	3.75 ± 0.46	4.3 ± 0.46	–	–
FICQATGDPRPKIVWNKKGKKVSN [PTPRD]	2.84 ± 0.37	3.35 ± 0.68	–	–
FIDGKFLPCSSYIDSYDPSTGEVY [ALDH8A1]	2.44 ± 1.2	2.66 ± 0.11	–	–
FIEGYCTPEEVIWEALNMMGLYDG [MAGEA10]	2.48 ± 0.24	2.17 ± 0.26	–	–
FKAVLDGLDVLLAQEVRPRRWKLQ [PRAME]	2.25 ± 0.19	2.41 ± 0.35	–	–
FKHPVIGVHVRRTDKVGTEAAFHP [FUT8]	2.98 ± 0.31	3.13 ± 0.23	–	–
FLHPDLGVGGAERLVLDAALALQA [ALG2]	2.32 ± 0.43	2.27 ± 0.23	–	–
FLVTMANIGINGNHSLETCETTLF [PTGFR]	2.88 ± 0.88	2.5 ± 1.1	–	–
FNKDLVQDCGFEHLVPVIEMWADQ [CEP70]	2.45 ± 0.45	2.65 ± 0.61	–	–
FNNVVEQNFKNRESYPEDTVFYIP [DLC1]	3.01 ± 0.24	3.16 ± 0.2	–	–
FPAEQYYRFHEHWRFVLQRLVFLA [TSN]	2.44 ± 0.42	2.22 ± 0.27	–	–
FPNRTDQQCQYRWLRVLNPDLVKG [MYBL2]	2.4 ± 0.34	2.44 ± 0.53	–	–
FPSTSYNARLQAMWGQSLLPPVST [TNXB]	2.36 ± 0.32	2.51 ± 0.35	–	–

Sequence	protein stability index [1]	protein stability index [2]	protein stability index (treatment: DMSO, c terminus: native)	protein stability index (treatment: MLN4924 1 uM, 8 h, c terminus: native)
FQAHRDKYEKLRGDVAIKLKFLEE [ARFIP2]	2.89 ± 0.45	3.15 ± 0.25	–	–
FQSISLRKIQFNFPYFRSDRDKRD [CLCN6]	2.3 ± 0.34	2.75 ± 0.52	–	–
FRAGMKKEAVQNERDRISTRRSSY [HNF4A]	4.2 ± 0.21	4.17 ± 0.22	–	–
FRGRRDVSGSWERDQQVEAAQRAL [RETREG3]	4.48 ± 0.27	4.28 ± 0.23	–	–
FRIIDSDHSGFISLDEFRQTWKLF [PPEF2]	2.97 ± 1	2.37 ± 0.48	–	–
FRNLVADRVLNYTSWSQHCPWEPQ [SPAG8]	2.21 ± 0.21	2.36 ± 0.23	–	–
FRPEMKKHSWCLKRKNPPNERTV [N4BP2L1]	–	–	3.06 ± 0.2	3.04 ± 0.68
FRQFGYQDSPGPHEALSRLWELCH [ZNF396]	2.28 ± 0.28	2.31 ± 0.24	–	–
FSEPSFITESYQTLHPISSEELLS [ETS1]	2.77 ± 0.4	3.28 ± 0.41	–	–
FSINSRLASSLGNLNAATDDPENK [CDC14A]	5.08 ± 0.26	5.1 ± 0.39	–	–
FSRAGISEAQLTDAETSKLIYDFI [WAS]	2.57 ± 0.2	2.95 ± 0.29	–	–
FTFPGMSLDKRQGEGLRIYWGSPE [TPRG1]	2.25 ± 0.35	2.38 ± 0.53	–	–
FVTGNCLEISPDCSQYDRVYCGAG [PCMTD2]	2.43 ± 0.19	2.33 ± 0.14	–	–
FWDFAQGPLLDSLYWTKWYNNQSL [PKD2L1]	2.3 ± 0.77	2.76 ± 0.94	–	–
FWKKYRTFWKEDKAFWKEDNALWE [CCDC70]	2.54 ± 0.49	2.26 ± 0.36	–	–
FYDKQLKVLLSGATFLVTFGNSEK [ZFYVE21]	2.45 ± 0.67	2.54 ± 0.54	–	–
GAGAEESELQAYIAQCQDSPTSGK [MCOLN1]	5.41 ± 0.14	5.45 ± 0.17	–	–
GAGAGAPGGGRLLLSTSLDAKDEL [INTS3]	5.04 ± 0.27	5.08 ± 0.068	–	–
GAGEGAAASPELSALEEAFRRFAV [TPPP]	3.58 ± 0.58	3.74 ± 0.44	–	–
GAGRRRRAGGPPRPMSEPGAGAGS [SMAD6]	5.22 ± 0.41	5.21 ± 0.14	–	–
GAHKDCQVAPLTHVFQRQKSELSD [TRIM55]	4.73 ± 0.34	4.83 ± 0.16	–	–
GAKMTERGSVARPTQGPETPRSPE [PXN]	5.59 ± 0.13	5.38 ± 0.26	–	–
GASFTQKGNLLRHIKLHSGEKPFK [IKZF1]	3.77 ± 0.23	3.72 ± 0.28	–	–

Sequence	protein stability index [1]	protein stability index [2]	protein stability index (treatment: DMSO, c terminus: native)	protein stability index (treatment: MLN4924 1 uM, 8 h, c terminus: native)
GCQVSPEGYAHLTHLLMGLASGRI [HDAC6]	2.46 ± 0.89	2.57 ± 0.53	–	–
GCSAVLSGGSSSSFRAGSKGLSGG [KRT71]	3.45 ± 0.14	3.48 ± 0.2	–	–
GDSDSALDSVSPCPSSPKQIHLDV [DLC1]	4.8 ± 0.37	4.66 ± 0.35	–	–
GEKPFECRQRLIFEQTPALTKHEW [ZNF8]	3.04 ± 0.85	2.93 ± 0.18	–	–
GEKPYECQDCGRAFNQNSSLGRHK [ZNF8]	3.19 ± 0.47	3.69 ± 0.23	–	–
GELLGEARYYLVQGLIEDCQLALQ [KCTD13]	2.15 ± 0.64	2.3 ± 0.28	–	–
GELLLDVAWHPVRPIIASISSGVV [RBBP5]	2.3 ± 0.54	2.42 ± 0.59	–	–
GENSDGCYEHFAELDIPQSVQQNG [CLPTM1]	5 ± 0.33	5.01 ± 0.32	–	–
GFCFFNSVAVAARHAQTISGHALR [HDAC6]	2.25 ± 0.43	1.76 ± 0.28	–	–
GFPGERTYNTKVYKMFASRRKQRY [LOXL2]	2.72 ± 0.42	2.98 ± 0.51	–	–
GGACPAFLPSLRPPPLTSPSHGSL [NCF4]	3.59 ± 0.092	3.71 ± 0.28	–	–
GGGEGKAMYIDTEGTFRPERLLAV [RAD51]	2.69 ± 0.32	2.9 ± 0.37	–	–
GGGGGGLPISTVREVALLRRLEAF [CDK4]	3.19 ± 0.3	3.23 ± 0.34	–	–
GGNPFAEPSELDNPFQDPAVIQHR [SCAMP3]	4.67 ± 0.14	4.98 ± 0.17	–	–
GHLFPPPTPIFAGGANDRWVRSVS [WSB1]	2.66 ± 0.18	2.39 ± 0.4	–	–
GHPVGLALEAAVHVQKLSQECLKQ [TRIM14]	3.07 ± 0.2	3.14 ± 0.28	–	–
GHTPLMEAGSAGHVEVARLLLENG [ANKRD17]	4.22 ± 0.24	4.17 ± 0.24	–	–
GIEHAQCVPPSEFSEPSFITESYQ [ETS1]	4.44 ± 0.12	4.15 ± 0.3	–	–
GIKTVIVNMVDVAKALNRPPTYPT [EIF5]	2.32 ± 0.48	2.4 ± 0.59	–	–
GIKVQNGGIVTDTPASNHLPGWED [SLC19A2]	4.4 ± 0.23	4.77 ± 0.28	–	–
GKPPTAHLDRTSVSSLSEVEEVDM [ELOA2]	5.51 ± 0.11	5.41 ± 0.29	–	–
GKTAASWCLHVNNWLQVSFTAKHA [FSD1]	3.23 ± 0.46	3.09 ± 0.76	–	–
GLANGLQLLCPWAPLSGPQALMLP [VENTX]	2.01 ± 0.31	2.1 ± 0.36	–	–

Sequence	protein stability index [1]	protein stability index [2]	protein stability index (treatment: DMSO, c terminus: native)	protein stability index (treatment: MLN4924 1 uM, 8 h, c terminus: native)
GLETGDWGGAPKEGSIWRGAQMEK [ZSWIM9]	4.07 ± 0.3	4.45 ± 0.22	–	–
GLETLFSKAQELGGAGREDPGLWS [ZSWIM9]	3.18 ± 0.5	3.39 ± 0.23	–	–
GLGRPTPGLSQGPGKETLESALIA [EHMT1]	3.95 ± 0.13	4.29 ± 0.22	–	–
GLKGRTLYPAVSAVWGQCQVRIRY [SPSB2]	2.98 ± 0.77	2.67 ± 0.56	–	–
GLLDLNNAILQLVKKYKSMKLEKE [ESRRG]	2.65 ± 0.14	2.9 ± 0.82	–	–
GLLNDTSAPHLENSGHTIFNDPFF [KCNA4]	4.17 ± 0.19	4.28 ± 0.28	–	–
GLQDTITAELVVIEDAAEPKEPAP [PALM]	5.06 ± 0.19	5.1 ± 0.18	–	–
GLSAGYVDAGAEPGRSRMISQEEF [LPCAT4]	4.47 ± 0.32	4.78 ± 0.23	–	–
GLSPEEKEQLSNDRETQEGKPPTA [ELOA2]	5.6 ± 0.22	5.31 ± 0.46	–	–
GLTFLLPFLFFGHFWQLFNALTLF [TMEM120A]	2.85 ± 0.11	2.63 ± 0.052	–	–
GMQMAEDSKSLKTHQTQPGIRRAR [NET1]	4.78 ± 0.36	4.69 ± 0.46	–	–
GMRDADYIAAFLHVLLPVALEFQP [HDAC6]	3.02 ± 0.47	2.96 ± 0.42	–	–
GNSISISALQSLLQHLIGLSNLTH [PRAME]	2.54 ± 0.036	2.62 ± 0.41	–	–
GNSRSAPPTRGPPPSYGGSSRYDD [RBMX]	4.94 ± 0.34	5.05 ± 0.15	–	–
GPIPSHMIHRTRKQKYFYKGGLVW [CLK3]	2.47 ± 0.027	2.45 ± 0.24	–	–
GPMRPEQFSDEVEPATPEEGEPAT [GAGE1]	5.39 ± 0.2	5.266 ± 0.044	–	–
GPRFGPRNDKIKHVQNQVDEVIDV [VAMP4]	4.24 ± 0.49	4.63 ± 0.22	–	–
GPRFLAYFGSFATVGLLWFAHHSL [TMEM175]	3.17 ± 0.2	3 ± 0.27	–	–
GQRLAVCVPAHPPPCAWACPVPAH [CTBP1-DT]	2.7 ± 0.39	2.8 ± 0.1	–	–
GREEKCVWKHGITPPLKNVRKKRF [TAF7L]	3.98 ± 0.34	4.03 ± 0.41	–	–
